Test results as given in paper PMC5282575, “The crystal structure of the Sgt1-Skp1 complex: the link between Hsp90 and both SCF E3 ubiquitin ligases and kinetochores” (Scientific Reports, 2017).
Values belong to the molecule of their own block, whether it stands above or below them.

B2: full-length Sgt1 (untagged), Saccharomyces cerevisiae (natural protein, S. cerevisiae, UniProt Q08446 1-395, looked up)
chain: MPVEKDLKTAYKALYDEKEPLKALHLYDEILKGSPTNLTALIFKAACLEKLYFGFSDWHSDATMENAKELLDKALMTAEGRGDRSKIGLVNFRYFVHFFNIKDYELAQSYFKKAKNLGYVDDTLPLWEDRLETKLNKKNKKQKDSTNKHTIKPVESIENRGDNNSSHSPISPLKIETAPQESPKFKIDWYQSSTSVTISLFTVNLPESKEQVNIYISPNDRRTLSISYQVPKSGSEFQYNAKLSHEVDPKAVSLKIFPKKLEITLSKIDSTQWKKLEEDILTESSRLSDEGKNSDSATRLLSAETASKERLSYPSSSKKKIDWSKLDIDEEADEEAGSADSFFQKLYAGADPDTKRAMMKSFIESNGTALSTDWEDVSKGTVKTSPPEGMEPKHW
notes: Sgt1, S. cerevisiae, full length, untagged, cloned in MCSII of pColA-Duet; Dimer at working concentrations by SV-AUC and native MS, with minor monomer and trimer; also called Sgt1 FL; wt; source: E. coli BL21 Star (DE3), purified (cation exchange, gel filtration)

Experiments:
[1] = molecular target: full-length Sgt1 and Sgt1TPR (S. cerevisiae); test: ITC; VP-ITC, 25 °C, 20 mM HEPES pH 7.0, 150 mM NaCl, 1 mM β-mercaptoethanol; 130-160 μM Skp1 injected into 6-13 μM Sgt1 dimer; single site model assuming dimeric Sgt1
[2] = molecular target: the molecule itself; test: AUC; sedimentation velocity, 20 °C, absorbance at 280 nm, continuous c(s) fit; Sgt1 at 4.5-22.3 μM monomer (His6-tagged WT and H59A at 11.2 μM)
[3] = molecular target: Skp1∆1 (Skp1 with residues 65-74 deleted) (S. cerevisiae, UniProt P52286 1-194, residues 65–74 are deleted); test: ITC
[4] = molecular target: the molecule itself; test: native MS; nano-electrospray, samples exchanged into 150 mM ammonium acetate pH 7; 4.5, 11.2 and 22.3 μM; spectra deconvoluted with Amphitrite
[5] = molecular target: B2; test: ITC; VP-ITC, 25 °C, 20 mM HEPES pH 7.0, 150 mM NaCl, 1 mM β-mercaptoethanol; 130-160 μM Skp1 injected into 6-13 μM Sgt1 dimer; single site model assuming dimeric Sgt1; details: both partners purified

Kd [1]: 600 to 700 nM
Molecule: full-length Skp1 (untagged), Saccharomyces cerevisiae (from UniProt P52286 1-194) (natural protein)

B1: Sgt1 TPR domain construct (Sgt1TPR, residues 1-150) (domain or fragment, S. cerevisiae, UniProt Q08446 1-150, looked up)
chain: MPVEKDLKTAYKALYDEKEPLKALHLYDEILKGSPTNLTALIFKAACLEKLYFGFSDWHSDATMENAKELLDKALMTAEGRGDRSKIGLVNFRYFVHFFNIKDYELAQSYFKKAKNLGYVDDTLPLWEDRLETKLNKKNKKQKDSTNKHT
notes: Sgt1, S. cerevisiae, TPR domain, residues 1-150, untagged, cloned in MCSII of pColA-Duet; Treated as a dimer in the ITC fit; forms concentration-dependent trimers; three copies in the asymmetric unit; SeMet-Sgt1TPR was used for the SAD data set; source: E. coli T7 Express LysY/Iq, purified (cation exchange, gel filtration)
stoichiometry N [2]: 3

Molecule: B2
Kd [3]: 3900 nM
stoichiometry N [2]: 2

B3: His6-tagged full-length Sgt1 D61R (natural protein, S. cerevisiae, UniProt Q08446 1-395, looked up)
chain: MPVEKDLKTAYKALYDEKEPLKALHLYDEILKGSPTNLTALIFKAACLEKLYFGFSDWHSRATMENAKELLDKALMTAEGRGDRSKIGLVNFRYFVHFFNIKDYELAQSYFKKAKNLGYVDDTLPLWEDRLETKLNKKNKKQKDSTNKHTIKPVESIENRGDNNSSHSPISPLKIETAPQESPKFKIDWYQSSTSVTISLFTVNLPESKEQVNIYISPNDRRTLSISYQVPKSGSEFQYNAKLSHEVDPKAVSLKIFPKKLEITLSKIDSTQWKKLEEDILTESSRLSDEGKNSDSATRLLSAETASKERLSYPSSSKKKIDWSKLDIDEEADEEAGSADSFFQKLYAGADPDTKRAMMKSFIESNGTALSTDWEDVSKGTVKTSPPEGMEPKHW
notes: Sgt1, S. cerevisiae, full length, in pET28a, Asp61 to Arg; source: E. coli T7 Express LysY/Iq, purified (HisTrap FF, gel filtration); not shown: His6, N-terminal, kept
stoichiometry N [4]: 2

binding result [5]: binds
B4: Skp1∆1 (Skp1 with residues 65-74 deleted) (natural protein, S. cerevisiae, UniProt P52286 1-194, looked up)
chain: MVTSNVVLVSGEGERFTVDKKIAERSLLLKNYLNDMHDSNLQNNSDSESDSDSETNHKSKDNNNIVMPVPNVRSSVLQKVIEWAEHHRDSNFPDEDDDDSRKSAPVDSWDREFLKVDQEMLYEIILAANYLNIKPLLDAGCKVVAEMIRGRSPEEIRRTFNIVNDFTPEEEAAIRRENEWAEDR
notes: Skp1, S. cerevisiae, in the context of the full-length protein; the LCR (36-64) is retained, residues 65-74 are deleted; also called Skp1Δ1; Skp1d1; source: E. coli, purified (anion exchange, gel filtration)
